These sequences were tested on Escherichia coli TOP10 (assay: shrunken log2 fold change of peptide-encoding DNA abundance (4.5 h post-induction vs induction); higher = less antimicrobial activity (less host growth inhibition)). Settings: time post-induction: 4.5 h; library: site-saturation at positions 5, 18, 19, 20.
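Also: peptides expressed intracellularly from a pBAD plasmid library in pooled LB shake-flask culture, induced with 0.3% L-arabinose, DNA abundance read by NGS, three biological replicates, DESeq2 with apeglm shrinkage.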

Row | Sequence | shrunken log2 fold change
1 | RRIRYRPPRLPRPRPRPECNPRP | -0.0877
2 | RRIRNRPPRLPRPRPRPQSHPRP | -0.68
3 | RRIRPRPPRLPRPRPRPFMDPRP | -0.248
4 | RRIRCRPPRLPRPRPRPDENPRP | -0.0357
5 | RRIRQRPPRLPRPRPRPDMDPRP | -0.0896
6 | RRIRVRPPRLPRPRPRPAWYPRP | 0.0171
7 | RRIRHRPPRLPRPRPRPVKSPRP | -0.0219
8 | RRIRQRPPRLPRPRPRPRDLPRP | 0.412
9 | RRIRARPPRLPRPRPRPDMFPRP | 0.0745
10 | RRIRQRPPRLPRPRPRPFSFPRP | -0.272
11 | RRIRHRPPRLPRPRPRPSARPRP | -0.223
12 | RRIRWRPPRLPRPRPRPSHLPRP | -0.517
13 | RRIRERPPRLPRPRPRPDIYPRP | 0.137
14 | RRIRARPPRLPRPRPRPVICPRP | 0.408
15 | RRIRIRPPRLPRPRPRPQGNPRP | -0.304
16 | RRIRHRPPRLPRPRPRPWHLPRP | -1.9
17 | RRIRIRPPRLPRPRPRPTAAPRP | 0.116
18 | RRIRYRPPRLPRPRPRPVVGPRP | -0.172
19 | RRIRNRPPRLPRPRPRPIYEPRP | -0.232
20 | RRIRFRPPRLPRPRPRPYTWPRP | -1.05
21 | RRIRPRPPRLPRPRPRPVHRPRP | 0.0193
22 | RRIRQRPPRLPRPRPRPQEAPRP | 0.0238
23 | RRIRYRPPRLPRPRPRPEVMPRP | 0.00902
24 | RRIRARPPRLPRPRPRPQQMPRP | 0.12
25 | RRIRWRPPRLPRPRPRPKYGPRP | 0.085

Row | Sequence | shrunken log2 fold change
26 | RRIRKRPPRLPRPRPRPHVRPRP | -0.0167
27 | RRIRGRPPRLPRPRPRPEEQPRP | -0.00213
28 | RRIRWRPPRLPRPRPRPHGSPRP | 0.173
29 | RRIRERPPRLPRPRPRPLQFPRP | -0.468
30 | RRIRWRPPRLPRPRPRPLRCPRP | 0.242
31 | RRIRDRPPRLPRPRPRPYQNPRP | -0.288
32 | RRIRPRPPRLPRPRPRPKKDPRP | -0.151
33 | RRIRRRPPRLPRPRPRPYELPRP | -0.297
34 | RRIRNRPPRLPRPRPRPHHTPRP | -0.459
35 | RRIRSRPPRLPRPRPRPYMWPRP | -0.744
36 | RRIRSRPPRLPRPRPRPFPCPRP | -0.124
37 | RRIRYRPPRLPRPRPRPTSHPRP | -0.611
38 | RRIRIRPPRLPRPRPRPLSTPRP | -0.599
39 | RRIRQRPPRLPRPRPRPKANPRP | 0.0666
40 | RRIRCRPPRLPRPRPRPAKPPRP | -0.144
41 | RRIRSRPPRLPRPRPRPSPLPRP | -0.324
42 | RRIRHRPPRLPRPRPRPFPWPRP | -0.0989
43 | RRIRQRPPRLPRPRPRPNLSPRP | -0.258
44 | RRIRHRPPRLPRPRPRPKNDPRP | -0.268
45 | RRIRMRPPRLPRPRPRPFNWPRP | -0.0926
46 | RRIRNRPPRLPRPRPRPPLPPRP | 0.363
47 | RRIRLRPPRLPRPRPRPWRAPRP | 0.392
48 | RRIRNRPPRLPRPRPRPPGRPRP | 0.769
49 | RRIRERPPRLPRPRPRPIGSPRP | -0.587
50 | RRIRIRPPRLPRPRPRPCDVPRP | -0.124

Row | Sequence | shrunken log2 fold change
51 | RRIRTRPPRLPRPRPRPPGMPRP | 0.424
52 | RRIRKRPPRLPRPRPRPWARPRP | 0.704
53 | RRIRPRPPRLPRPRPRPPSCPRP | -0.058
54 | RRIRRRPPRLPRPRPRPTYPPRP | 0.0623
55 | RRIRIRPPRLPRPRPRPIKSPRP | -0.462
56 | RRIRERPPRLPRPRPRPFMHPRP | -0.121
57 | RRIRRRPPRLPRPRPRPILAPRP | 1.17
58 | RRIRYRPPRLPRPRPRPRAAPRP | -0.0447
59 | RRIRVRPPRLPRPRPRPGGQPRP | -0.0141
60 | RRIRSRPPRLPRPRPRPGLRPRP | 0.222
61 | RRIRRRPPRLPRPRPRPQPRPRP | 0.5
62 | RRIRKRPPRLPRPRPRPNVYPRP | -0.0771
63 | RRIRVRPPRLPRPRPRPDMWPRP | -0.499
64 | RRIRCRPPRLPRPRPRPDNFPRP | -0.489
65 | RRIRQRPPRLPRPRPRPLNEPRP | -0.136
66 | RRIRNRPPRLPRPRPRPYTIPRP | -0.138
67 | RRIRARPPRLPRPRPRPHWSPRP | -0.0356
68 | RRIRTRPPRLPRPRPRPYMCPRP | -0.827
69 | RRIRPRPPRLPRPRPRPSMEPRP | -0.157
70 | RRIRIRPPRLPRPRPRPHCTPRP | -0.0502
71 | RRIRYRPPRLPRPRPRPQANPRP | -0.694
72 | RRIRIRPPRLPRPRPRPRSAPRP | 0.0737
73 | RRIRFRPPRLPRPRPRPIEDPRP | -0.461
74 | RRIRSRPPRLPRPRPRPDELPRP | -0.0328
75 | RRIRFRPPRLPRPRPRPHWIPRP | -0.151

Row | Sequence | shrunken log2 fold change
76 | RRIRIRPPRLPRPRPRPSVEPRP | -0.947
77 | RRIRNRPPRLPRPRPRPGGDPRP | 0.00185
78 | RRIRRRPPRLPRPRPRPAVNPRP | 0.125
79 | RRIRHRPPRLPRPRPRPTQCPRP | -0.0253
80 | RRIRSRPPRLPRPRPRPSDCPRP | -0.79
81 | RRIRTRPPRLPRPRPRPDQHPRP | -0.626
82 | RRIRCRPPRLPRPRPRPSKMPRP | -0.492
83 | RRIRHRPPRLPRPRPRPIYYPRP | -0.32
84 | RRIRWRPPRLPRPRPRPMHTPRP | 0.643
85 | RRIRKRPPRLPRPRPRPNDIPRP | 0.0543
86 | RRIRARPPRLPRPRPRPVNVPRP | -0.169
87 | RRIRIRPPRLPRPRPRPSRTPRP | -0.455
88 | RRIRCRPPRLPRPRPRPWGHPRP | -0.092
89 | RRIRLRPPRLPRPRPRPPLMPRP | 0.313
90 | RRIRLRPPRLPRPRPRPVDPPRP | -0.0136
91 | RRIRQRPPRLPRPRPRPTFAPRP | 0.209
92 | RRIRDRPPRLPRPRPRPLVEPRP | 0.331
93 | RRIRCRPPRLPRPRPRPMAAPRP | 0.476
94 | RRIRGRPPRLPRPRPRPFNMPRP | -1.07
95 | RRIRSRPPRLPRPRPRPWPTPRP | 0.219
96 | RRIRQRPPRLPRPRPRPQRGPRP | 0.235
97 | RRIRTRPPRLPRPRPRPRHIPRP | -0.158
98 | RRIRCRPPRLPRPRPRPDDWPRP | 0.104
99 | RRIRMRPPRLPRPRPRPTPVPRP | 1.14
100 | RRIRDRPPRLPRPRPRPQSGPRP | -0.136

Row | Sequence | shrunken log2 fold change
101 | RRIRRRPPRLPRPRPRPNMYPRP | -0.16
102 | RRIRARPPRLPRPRPRPVIVPRP | 0.142
103 | RRIRDRPPRLPRPRPRPERTPRP | 0.12
104 | RRIRARPPRLPRPRPRPTFLPRP | 0.113
105 | RRIRWRPPRLPRPRPRPITEPRP | -0.355
106 | RRIRGRPPRLPRPRPRPCYSPRP | -0.0391
107 | RRIRIRPPRLPRPRPRPEFWPRP | -0.0113
108 | RRIRARPPRLPRPRPRPAKYPRP | -0.156
109 | RRIRRRPPRLPRPRPRPPKTPRP | 0.108
110 | RRIRYRPPRLPRPRPRPFCFPRP | -0.114
111 | RRIRPRPPRLPRPRPRPIHCPRP | -0.125
112 | RRIRTRPPRLPRPRPRPLQNPRP | 0.163
113 | RRIRRRPPRLPRPRPRPVSCPRP | -0.121
114 | RRIRRRPPRLPRPRPRPCWSPRP | -0.0452
115 | RRIRYRPPRLPRPRPRPPQCPRP | -0.32
116 | RRIRIRPPRLPRPRPRPNKKPRP | -0.0918
117 | RRIRTRPPRLPRPRPRPHYDPRP | -0.302
118 | RRIRTRPPRLPRPRPRPEQNPRP | 0.189
119 | RRIRQRPPRLPRPRPRPPFWPRP | 0.504
120 | RRIRTRPPRLPRPRPRPVPSPRP | 0.0454
121 | RRIRVRPPRLPRPRPRPWSNPRP | -0.0426
122 | RRIRCRPPRLPRPRPRPDMMPRP | 0.00614
123 | RRIRMRPPRLPRPRPRPHPAPRP | 0.903
124 | RRIRFRPPRLPRPRPRPQCNPRP | -0.531
125 | RRIRTRPPRLPRPRPRPQGKPRP | -0.108

Source: the supplement of paper PMC9112550, “Optimization of the antimicrobial peptide Bac7 by deep mutational scanning” (BMC Biology, 2022)
